In patent US20220119502A1 (ANN AND ROBERT H LURIE CHILDREN S HOSPITAL OF CHICAGO, published 2022) one finds binding result, OD450 (KD peptide minus scrambled peptide) and spot intensity (fluorescence units) (fluorescence units) data, which are given here for seven molecules.

Positions count from the first letter of the chain named.

The target of assay [1] is T1, bovine serum albumin (Fraction V, Fisher BP1600) (bovine, UniProt P02769 25-607).
T1 construct: also called BSA
The assay is described as follows: polyreactivity ELISA. (An ELISA detects its analyte on a solid surface through an enzyme-linked reagent.)

Assay [2] addresses KD peptide (NS4A peptide 2), BSA conjugated. The assay is described as follows: ELISA.
For assay [3], the target named is multiple related peptides of hepacivirus C NS4A (animal virus peptide array). The assay is described as follows: animal virus peptide array, 2.5 ug/ml.
For assay [4], the target named is integral membrane protein 2B (ITM2B) (human, UniProt Q9Y287 1-266). The assay can be described thus: HuProt v4.0 human proteome array, 1 ug/ml.
integral membrane protein 2B (ITM2B), sequence (Q9Y287 whole entry): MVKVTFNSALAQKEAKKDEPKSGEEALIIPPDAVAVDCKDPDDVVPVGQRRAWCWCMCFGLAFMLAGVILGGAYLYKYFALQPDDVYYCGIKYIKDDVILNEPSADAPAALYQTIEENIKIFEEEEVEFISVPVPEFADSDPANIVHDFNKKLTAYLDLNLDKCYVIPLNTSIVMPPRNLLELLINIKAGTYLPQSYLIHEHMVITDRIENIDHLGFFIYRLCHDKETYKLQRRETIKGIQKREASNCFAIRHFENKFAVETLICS

T1 sequence (P02769 25-607 limits assumed): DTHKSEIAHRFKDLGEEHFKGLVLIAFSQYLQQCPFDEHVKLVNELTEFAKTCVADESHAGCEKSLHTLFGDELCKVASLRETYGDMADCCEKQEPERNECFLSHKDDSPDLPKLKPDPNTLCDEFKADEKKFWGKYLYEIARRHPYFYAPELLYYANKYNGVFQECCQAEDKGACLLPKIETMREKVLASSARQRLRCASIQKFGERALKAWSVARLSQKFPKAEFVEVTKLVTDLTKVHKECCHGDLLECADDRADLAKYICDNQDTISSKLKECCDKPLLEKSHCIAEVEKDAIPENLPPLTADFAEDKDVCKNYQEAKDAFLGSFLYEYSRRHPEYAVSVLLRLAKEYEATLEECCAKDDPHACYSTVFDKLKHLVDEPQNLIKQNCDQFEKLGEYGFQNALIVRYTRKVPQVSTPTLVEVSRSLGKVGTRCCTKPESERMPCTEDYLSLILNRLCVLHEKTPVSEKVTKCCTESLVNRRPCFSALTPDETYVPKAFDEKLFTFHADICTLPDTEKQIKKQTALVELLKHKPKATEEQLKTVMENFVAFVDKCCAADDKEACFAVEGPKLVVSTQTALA

B1: KD8-1B10 (antibody, V domains shown)
VH: EVQLVESGGGLVQPGGSLRLSCAASGFTFSDHYMDWVRQVPRKGLEWVGRARNKANSYTTEYAASVKGRFTISRDDSKNSLYLQMNSLKSEDTAVYYCARFLLIADAFDIWGQGTMVTV
VL: DIQMTQSPSSLSASLGDRVTITCRASQGIRHDLGWYQQKPGKAPKLLIYGASTLQTGVPSRFSGSGSGTDFTLTISSLQPEDFATYYCLQKYNYPLTFGGGTKVEIK
For B1, the binding result in assay [1] was “no binding (tested: 10, 1, and 0.1 ug/ml)”.

B2: KD8-1D4 (antibody, V domains shown)
VH: B1 VH with H32Y, V40A, R42G, A51T, S90T, I104V
VL: B1 VL with L15V, H31N, T53S, T56S, F83I, K91E, N93T
On to B2, for which the binding result in assay [1] was “no binding (tested: 10, 1, and 0.1 ug/ml)”.

B3: KD9-1B5 (antibody, V domains shown)
VH: QVQLQESGPGLVKPSETLSLTCTVSGGSINSYYWSWIRQPPGKGLEWIGYIYYSGSTNYNPSLKSRVTISVDTSKNQFSLRLSSVTAADTAVYYCARHPTAGTSYGMDVWGQGTTVTV
VL: QSALTQPASESGSPGQSITISCTGTTSDVGSYNLVSWYQQHPGKAPKLMIYEGTKRPSGVSNRFSGSKSGNTASLTISGLQPEDEADYYCCSYAGTTTYVFGTGTKVTVL
With B3, the OD450 (KD peptide minus scrambled peptide) in assay [2] was < 0.04 OD.

B4: KD6-2B2 (antibody, V domains shown)
VH: EVQLVESGGGVAQPGTSLRLSCEASGFTFRDYAMRWVRQAPGKGLEWVAFIWNDGSKKYYTDSVRGRFTISRDNSKNMLYLQMDSLRAEDTALYYCARKMSEDDAFDLWGQGTMVTV
VL: DIQMTQSPSTLSASAGDRVTITCRASQSVSKYLAWYQQKPGKAPRLLIYKASSLQSGVPSRFSGSGSGTEFTLTISSLQPDDFATYYCQHYNTYPSWTFGQGTKVEIK
notes: also called rabbit KD6-2B2; KD36-2B32
Take B4: in assay [1], the binding result was “no binding (tested: 10, 1, and 0.1 ug/ml)”.

B5: KD4-2H4 (rabbit version) (antibody, V domains shown)
VH: EVQLVESGGGLVQPGGSLRLSCAASGFTFSSYWMYWVRQAPGKGLVWVSRINSDGSTTNYADSVKGRFTISRDNAKNTLYLQMNSLRAEDTAVYFCARYAHLGIGWYFDLWGRGTLVTVSS
VL: QSALTQPRSVSGSPGQSVTISCTGTSSDVGGYNYVSWYQQHPGKAPKLMIYDVSKRPSGVPDRFSGSKSGNTASLTISGLQAEDEADYYCCSYAGSYTLLFGGGTKLTVL
notes: also called Rabbit KD4-2H4
With B5, the binding result in assay [1] was “no binding (tested: 10, 1, and 0.1 ug/ml)”. The spot intensity (fluorescence units) (fluorescence units) in assay [3] was > 200.

B6: KD4-2H4 (human version) (antibody, V domains shown)
VH: B5 VH
VL: B5 VL
notes: also called human KD4-2H4
With B6, the binding result in assay [4] is “binds”.

B7: KD6-1A10 (antibody, V domains shown)
VH: VQLVESGGGVVQPGRSLRLSCAASGFSFSNYFMHWVRHVPGKGLEWLATIWYDGSDKYYVDSVKGRFTISRDNSKNTLYLQMGSLRAEDTAMYYCAKGRQRGYYYDMGGYYVFDSWGQGTLVTVSS
VL: QSVLTQPPSASGTPGQGVTISCSGSRSNIGSNTVNWYRQFPGTAPKLLIYKNNQRPSGVPDRFSGSKPGTSAYLAITGLQSDDQADYYCAAWDDSLKGVVFGGGTKLTVL
Regarding B7, the binding result in assay [1] is “no binding (tested: 10, 1, and 0.1 ug/ml)”.
